# The nanobody polyreactivity screen of Harvey et al. (2022)
# Experiment: yeast display, Sf9 membrane polyspecificity reagent, FACS + sequencing; frameworks hold sequencing errors
# How it was run: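 Sorting gates, low and high (top ~1%), were placed on anti-HA fluorescence to track expression and on streptavidin fluorescence to track reagent binding. A clone's polyreactivity label is taken from the gate it came out of. The reagent was 10% biotinylated, detergent-solubilized Sf9 membrane, applied for 1 hour at 4 °C to galactose-induced yeast display cells.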
row,Sequence,polyreactivity (PSR sort gate)
1,QVQLVESGGGLVQAGGSLRLSCAASGSTFPSYTMGWYRLAPGKERELVAAITLSGGSTYYADSVKGRFTISRDKAKNTVSLQMNSQKPEDTAVYYCAAYSQRGYDYWGQGTQVTVSS,low polyreactivity
2,QVQLVESGGGLVQAGGSLRLSCAASGRIFRGNAMGWYRQAPGKERELVATITKRGGSTYYADSVKGRFTISRDNAKNTVYLQMNSLKPEDTAVYYCNTRTYGYLTQKYDYWGQGTQVTVSS,high polyreactivity
3,QVQLLESGGGLVQAGGSLRLSCAASGRTFTRNAMGWYRQAPGKERELVAAISYRVGSTYYADSVKGRFTISRDNAKNTVYLQMNSLKPEDTAVYYCATGRGHSYGGDDYWGQGTQVTVSS,high polyreactivity
4,QVQLVDSGGGLVQAGGSLRLSCAASGAIFEYYAMAWNRQAPGKERELVAAISWSGGSTYYADSVKGRFTISRDNAKNTVYLQMNSLKPEDTAVYYCAADYYLYQVYTGYDYWGQGTQVNVSS,low polyreactivity
5,QVQLVESGGGLVQAGGSLRLSCAASGSIFAVYTMGWYRQAPGKERELVAAINWSGARTYYADSVKGRFTISRDNEKNTVYLQMNSLKPEDSAVYYCAAESRLGVAYIYWGQGTQVTVSS,low polyreactivity
6,QVQLEESGGGLVQPGGSLRLRCAASGITFYWNAMGWYRQAPVKERELVAGITNSGGGTYYADSVKGRFTISRDNSMYTVYLLMNSLKPEDSAVYYCAAEPTSWYFFYYVGDYLGQGTQVTVSS,high polyreactivity
7,QVQLVESGGGVVQAGGSLRLSCAASGRIFVSNPMGWYRQAPGKERELVAAITSGGRTNYADSVKGRFTISRDNAKNTVYLQMNSLKPEDTAVYYCNARGYSSRGFRRYSTKYDYWGQGTQVTVSS,high polyreactivity
8,QVQLVESGGGLVQAGGRLRLSCAASGSTFDPNAEGWYRPAPGKARELVAVIDSGDGTTYYADSVKGRVTISRDKAKNTVYLQMNSLKPEDTAVYYCAAEFHWWYAGYDYGYWGQGTQVTVSS,low polyreactivity
9,QVQLVESGGGLVQAGGSLRLSCAASGRTFAENAMGWYRQAPGKESELVAAISETGSRTYYADSVKGRFTISRDNAKNTVYLQMNSLKPEDTAVYYCAARSWHGVLWSYRHDYWGQGTQVTVSS,low polyreactivity
10,QVQLVESGGGLVQAGGSLRLICAASGITYDQNAMGWYRQAPGKDRDLVAAITRGSSTNYADSVKGRVTISRDNAKNTVYLKMNSVKPEDTAVYYCAAAVLGSSKSEVDPDRPEYYYWGQGTQVTVSS,low polyreactivity
11,QVQLVESGGGLVQAGGSLRLSCAASGRTFVRNTMGWYRQAPGKEREFVAAISRSGGNTNYADSVKGRFTISRDNAKNTVYLQMNSLKPEDTAVYYCATRAGYQVYPNKMNYWGQGTQVTVSS,high polyreactivity
12,QVQLVESGGGLVKAGGSLRLSCAASGLILYRYVMGWYRQAPGKERELVAAISSSGGRTYYADSVKGRFTISRDIAKNTVYLQMNSMKPEDTAVYYCAKRRSDARRGYDYWGQGTQVTVSS,high polyreactivity
13,QVQLVESGGGLVQAGGSLRLSCAASGFIFAYYAMGWYRQAPGKERELVAAITSSGGSTYYADSVKGRFTISRDNAKHTVYLQMNSLKPEDTAVYYCNAVPRHYKGYYWGQGTQVTVSS,high polyreactivity
14,QVQLVESGGGLVQAGGSLRLSCAASGRIYVNAMGWYRQAPGKERELVAAIRSGGSTNYADSVKGRFTISRDNAKNTVYLQMNSLKPEDTAVYYCNARRRDYRHWYDYWGQGTQVTVSS,high polyreactivity
15,QVQLVESGGGLVQAGGSLRLSCAASGSTSRKYTMGWYRQAPGKERELVATISWSGGSTYYADSVKGRFTISRDNAKNTVYLQMNSLKPEDTAVYYCAAATKVRNLGSFESPGPEVDYWGQGTQVTVSS,high polyreactivity
16,QVQLEESGGGLVQAGGSLRLSCAASGFIYRGYTMGWYRTAPGKERELVAGITSTASTNYADSVKGRFTISRDNAKNTVYLQMNSLKPEDTAVYYCAAGVPYRLRNRYYYWGQGTQVTVSS,high polyreactivity
17,QVQLVESGGGLVQAGGSLRLSCAASGITFPLYAMGWYRQAPGKETELVASITRGGTTNYADSVKGRFTISRDNAKNTVYLQMNRLKPEDTAVYYCAAEVTRDRGFDYWGQGTQVTVSS,low polyreactivity
18,QVQLVESGGGLVQAGGSLRLSCAASGLIFGRYAMGWYRQAPGKERELVAGISGSGGITYYADSVKGRFTISRDTAKNTVYLQMHILKPEDTAVYYCATAAASHKYGYWGQGTQVTVSS,low polyreactivity
19,QVQLVESGGGLVQAGGSLRLSCAASGSTFGGYAKGWYRQAPGKERELVAAISGSGVRTYYADSVKGRFTISRDNAKNTVYLQMNSLKPEDTAVYYCAKRVRYPGDRYYYWGQGTQVTVSS,high polyreactivity
20,QVQLVESGGGLVQAGGSLRLSCAASGRTFRYYAMGWYRQAPGKERELVASISSTGGNTYYADSVKGRFTISRDNAKNTVYLQMNSLKPEDTAVYYCAAGAWTRGQYYYWGQGTQVTVSS,high polyreactivity
21,QVQLVESGGGLVQAGGSLRLSCAASGRTFFGYAMGWYRQAPGKERELVAAISSGGSTYYADSVKGRFTISRDNAKNTVYLQMYSLKPEDTAVYYCATAFYYYTSGTTLLFRYDYWGQGTQVTVSS,low polyreactivity
22,QVQLVESGGGLVQAGGSLRLSCAASGSIFLHNAMGWYRQAPGKERELVAAISGTGGRTYYADSVKGRFTISRDNAKNTVYLQMNSLKPEDTAVYYCAKTLRDPYRYDYWGQGTQVTVSS,high polyreactivity

row,Sequence,polyreactivity (PSR sort gate)
1,QVQLVESGGGLVQAGGSLRLSCAASGYTIESYGMGWYRQAPGKDREMVAAIDWSGGSTYYADSVKGRFTISRDNAKNTVYLQMNSLIPEDTAVYYCNRDSAGPGDVILAYTGNDYWGQGTQVTVSS,low polyreactivity
2,QVQLVESGGGLVQAGGSLRLSCAASGIILDPNAMGWYRQAPGKEREMVAGITRSGVSTYYADSVKGRFTISRDNAKNTVYLQMNSLKPEDTAVYYCANDRIYGSKGEDDDYWGQGTQVSVSS,low polyreactivity
3,QVQLVESGGGLVQAGGSLRLSCAASGLIFVQNAMGWYRQAPGKEREFVAAISAGGTRTYYADSVKGRFTISRDNAKNTVYLQMNSVKPEDTAVYYCAAASGYDYWGQGTQGTVSS,high polyreactivity
4,QVQLVESGGGLVQAGGSLRLSCDASGRIFRANAMGWYRQAPGKERELVASISRGGSTNYADSVKGRFTISRDNAKNTVYLQMNRLKPEDTAVYYCAARLGFYPYGYTSWYTVYYWGQGTQVTVSS,low polyreactivity
5,QVQLVESGGGLVQAGGSLRLRCAASGSTLYIYAMGWYRQAPGKERELVAAITSSTGSTYADSVKGRFTISRDNAKNTVYLQMNSLKPEDTAVYYCNAGGPLQPYDYWGQGTQVTVSS,low polyreactivity
6,QVQLVESGGCIVQAGGSLRLSCAAYGRIFAKYVMGWSRKAPGKERELVAAITSSGGSTYYADSVKGRFTISRDNAKNTVYVQMNSLKSEDTAVYYGAAGPSYHSSYYSWGQVTQVTVSS,high polyreactivity
7,HVQLVESAGGLVQAGGSLRVSCAASGRTFEDNAMGWSRPAPGKERELVAAISSAGSTNYADSVKGRFTISRDNAKNTVYLQMTSLKPEDTAVYYCNATVYWPYDWRTSDYWGHGTQVTVSS,low polyreactivity
8,QVQLVESGGGLVQAGGSLRLSCAASGSTFYYYAMGWYRQAPGKEREFVAAISWGGGSTRYADSVKGRFTISRDNAKNTVYLQMNSLKPEDTAVYYCAARYPHYDYYYWGQGTQVTVSS,high polyreactivity
9,QVQLVESGGGLVQAGGSHRVRCAASGRTFSQYDLGWYRQEPGKERELVAAITRSGSRTYYADSVKGRFTISRDNAKNTVYLQMNSLKPEDTAVYYCNARSISRKKGYPPQRRDGYWGQGTQVTVSS,high polyreactivity
10,QVQLVESGGGLVQAGGSLRLSCAASGSIFYYYAMGWYRPAPGKEWELVAAISSTVSTNYADSVKGRFTISRDNAKNTVYLQMNSLKPEDTAVYYCAAAQRVNHVWYDYWGQGTQVTVSS,low polyreactivity
11,KVQLVESGGGLVQAGGSLRLSCAASGLIFYDNMGWYRQAPGKERELVAAISSSGGSTSYADSVKGRFTISRDNAKITVYLQMNSLKPEDTAVYYFAADSYPAYLGFVGFDYWGQGTQVTVSS,low polyreactivity
12,QVQLVESGGGLVQAGGSLRLSCAASGSISIRNAMGWYRQAPGKERELVAAISRGGSTYYADSVKGRFTISRDNAKNKVYLQMNSLKPEDTAVYYCNVLHLRRTAIMDYWGQGTQVTVSS,high polyreactivity
13,QVQLVESGGGLVQAGGSLRLSCADSRFNYSYNAMGSYRKAPGKERELVAAISTSGGRTYYADSVKGRFTISRDNAKNTVYLQMNSLKPEDTAVYYCAALSRNQYDPQSYVYWGQGTQVTGSS,high polyreactivity
14,QDQLVESGGELVQAGGSLRLSCASSGRTFSANGMGWYRQAPAKERELVAAITRSGGITYYADSVKGRFTISRVNAKNTVYLQMNSLKPEDTAVYYCAASVYSLSRRSWMDYWGQGTQVTVSS,low polyreactivity
15,QVQHEDSGGGLVQAGGSLRLSCAASGRIFLYYAMGWYRQAPGKERELVAAISSGTSTYYADSVKGRFTISRDNAKNTVYLQMNSLKPEDTAVYYCAAYYYSYPTNGGYGYWGQGTQVTVSS,low polyreactivity
16,QVQLVESGGGLVQAGGSLRLSCPASGRTSVINAMGWYRQAPGKETELVATITWSAASTYYADSVKGRFTISRDNAKNTVYLQMNSLKPEDTAVYYCATDSAQYGYDYWGQGTQVTVSS,low polyreactivity
17,QVQLVESGGGLVQAGGSLRLSCAASGRIFKRYVMGWYRQAPGKERELVAAISQRGGSTNYADSVKGRFTISRDNAKNTVYLQMNSLKPEDTAVYYCAAGFFSRYDYWGQGTQVTVSS,high polyreactivity
18,QVQLVESGGGLVQAGGSLRLSCAASGRIFSYNAMGWYRQAPGQERELVAAITTGGSTYYADSVKGRFTISRDNAKNTVYLQMNSLKPEDTAVYYCNKLGYYYDRRYDYWRQGTQVTVSS,high polyreactivity
19,QVQLVESGGGLVQAGGSLRLSCAASGRTFYYYAMGWYRQAPGKERELVAAISSRGGSTYYADSVKGRFTISRDNAKNTVYLQMNSLKPEDTAVYYCAAERYFVLYRYYSYAYYYWGQGTQVTVSS,high polyreactivity
20,QVQLQESGGGLVQAGGSLRLSCASSGSIFWVWRMGWYCQAPGKEREFVAGIGLGATTNYADSVKGRFTISRDNAKNTVYLQMNSLKPGDTAVYYCATVGYYKGNQVLPAKDGDSWGQGTQVTVSS,high polyreactivity
21,QVQLVESGGGLVQAGGSLRLSCAASGITFYRYVMGWYRQAPGKERELVAAITTGDSTYYADSVKGRFTISRDNAKNTVYLLMNSLKPEDTAVYYCAAVYYSALANYDYWGQGTQVTVSS,low polyreactivity
